# According to paper PMC10315065 (Journal of Innate Immunity, 2023):
# Tests used:
# [1] = tested on: cell surface GAPDH, THP-1; format: cell-based; settings: IFNγ; empty vector vs GAPDH knockdown; n = 3
# GAPDH, J774 = test: GAPDH activity in cell lysate; format: cell-based, mouse
# cell surface GAPDH, J774 = format: cell-based, mouse; settings: IFNγ 100 ng/mL, 24 h; n = 3
# P2X7, THP-1 = format: cell-based; settings: IFNγ; empty vector vs GAPDH knockdown; n = 3
molecule,measurement,setting,value
"IFNγ: recombinant mouse IFNγ (PeproTech #315-05) (protein, UniProt P01580 23-155, looked up) Interferon gamma: HGTVIESLESLNNYFNSSGIDVEEKSLFLDIWRNWQKDGDMKILQSQIISFYLRLFEVLKDNQAISNNISVIESHLITTFFSNSKAKKDAFMSIAKFEVNNPQVQRQAFNELIRVVHQLLPESSLRKRKRSRC","GAPDH recruitment on the cell surface, WT and GAPDH K/D",[1],enhanced GAPDH recruitment on the cell surface of WT cells but failed to do so in GAPDH K/D cells
same,GAPDH activity,"GAPDH, J774; IFNγ 100 ng/mL, 24 h",enhanced GAPDH activity
same,total cellular GAPDH,"GAPDH, J774; IFNγ treatment, Fig. 1i",significant increase in total cellular GAPDH
same,increase in cell surface GAPDH localization,"cell surface GAPDH, J774",~50%
same,surface P2X7 expression,"P2X7, THP-1",surface expression of P2X7 continued to be elevated irrespective of GAPDH K/D
